In patent publication US20170260289A1 (Novo Nordisk, published 2017):
Numbering of substitutions follows the chain as printed. In names and notes the source's numbering stands.

B1: mAb 2007 (antibody, V domains shown)
VH: EVQLVESGGGLVKPGGSLRLSCAASGFTFSNYAMSWVRQAPGKGLEWVSTISRSGSYSYYPDSVKGRFTISRDNAKNSLYLQMNSLRAEDTAVYYCARLGGYDEGDAMDSWGQGTTVTVSS
VL: DIVMTQTPLSLSVTPGQPASISCKSSQSLLESDGKTYLNWYLQKPGQSPQLLIYLVSILDSGVPDRFSGSGSGTDFTLKISRVEAEDVGVYYCLQATHFPQTFGGGTKVEIKR
notes: Grafted HzTFPI4F36 with a single A60P (Kabat) back mutation in VH
B2: mAb 2000 (antibody, IgG4, V domains shown)
VH: B1 VH with P61A
VL: B1 VL
notes: Human kappa/IgG4 (S241P); also called initial grafted HzTFPI4F36 variant
B3: mAb 0421 (bispecific antibody, human IgG1, kappa)
heavy 1: not shown
light 1: DIVMTQTPLSLSVTPGQPASISCKSSQSLLESDGKTYLNWYLQKPGQSPQLLIYLVSILDSGVPDRFSGSGSGTDFTLKISRVEAEDVGVYYCLQATHFPQTFGGGTKVEIKRTVAAPSVFIFPPSDEQLKSGTASVVCLLNNFYPREAKVQWKVDNALQSGNSQESVTEQDSKDSTYSLSSTLTLSKADYEKHKVYACEVTHQGLSSPVTKSFNRGEC
heavy 2: not shown
light 2: GIVMTQSQKFMSTTVGDRVSITCKASQSVGPAVAWYQQKPGQSPKLLIYSASNRYTGVPDRFTGSGSGADFTLTISNLHSEDLADYFCQQYTSYPTFGGGTKLEIKRTVAAPSVFIFPPSDEQLKSGTASVVCLLNNFYPREAKVQWKVDNALQSGNSQESVTEQDSKDSTYSLSSTLTLSKADYEKHKVYACEVTHQGLSSPVTKSFNRGEC
notes: Full length human IgG1 format, made by controlled Fab-arm exchange; also called asymmetric bispecific antibody derived from mAb 0310 and mAb 0336

Assays:
[1] = target: TFPI (form not stated, Example 5) (UniProt P10646 29-304, limits assumed); test: method not stated
[2] = target: T1, human TFPI alpha (full-length TFPIα) (human, UniProt P10646 29-304); test: cell-based or functional assay
[3] = target: T2, endogenous TFPI of human plasma (human, UniProt P10646 29-304, limits assumed); test: cell-based or functional assay
[4] = target: TFPI KPI-2 fragment spanning the KPI-2 domain of TFPI with a C-terminal HIS6 tag (human, UniProt P10646 119-178); test: SPR (Biacore T200), bispecific captured by anti-Fab kappa antibody, antigen as analyte, 1:1 Langmuir fit
Experimental: (§1) Binding studies were performed on a Biacore T200 (GEHealthcare) that measures molecular interactions in real time through surface plasmon resonance. Experiments were run at 25° C. and the samples were stored at 15° C. in the sample compartment. The signal (RU, response units) reported by the Biacore is directly correlated to the mass on the individual sensor chip surfaces in four serial flow cells. Goat anti Fab Kappa Light Chain antibody (Nordic Biosite) was immobilized onto all four flow cells of a CM4 sensor chip according to the manufacturer's instructions. Capture of purified bispecific molecules was conducted by diluting the proteins into running buffer (10 mM Hepes 0.3 M NaCl, 5 mM CaCl₂, 0.05% surfactant P20, 10 mg/ml BSA, pH 7.4) and injected over flowcell 2, 3 or 4, creating a reference surface in flow cell 1 with only anti-Fab antibody immobilized. […] Binding of TFPI FL (SEQ ID NO: 1), TFPI (1-79), and TFPI KPI-2 proteins was conducted by injecting analyte (antigen) over all flow cells to allow for comparative analyses of binding to different captured bispecific molecules relative to binding to the reference surface. The TFPI (1-79) fragment spans the N-terminal and KPI-1 domain of TFPI with an N-terminally attached GSSGSSG tag (SEQ ID NO: 16). The TFPI KPI-2 fragment spans the KPI-2 domain of TFPI with a C-terminal HIS₆ tag (SEQ ID NO: 3). Antigens were diluted serially into running buffer, injected at 30 μl/min for 240 s and allowed to dissociate for 600 s or 14000 s. Prolonging the monitoring of dissociation phase for antigens that dissociates slowly with kd approaching 1E-5 s⁻¹ is crucial to get a robust value for the dissociation rate. The CM4 surface was regenerated after each injection cycle of analyte via injection of 10 mM Glycine, pH 2.1. This regeneration step removed the anti-TFPI bispecific molecule and any bound antigen from the immobilized capture antibody surface, and allowed for the subsequent binding of the next interaction sample pair.

[5] = target: T3, TFPI (1-79) fragment, N-terminal and KPI-1 domain of TFPI with an N-terminally attached GSSGSSG tag (human, UniProt P10646 29-107); test: as above
T3 construct: also called tagged TFPI KPI-1/N-terminal; TFPI KPI-1
Experimental: as §1

[6] = target: T1, human TFPI alpha (full-length TFPIα); test: cell-based or functional assay; remark: listed apart in the source
[7] = target: T2, endogenous TFPI of human plasma; test: cell-based or functional assay; remark: listed apart in the source

Row | Binder | fold lower TFPI binding affinity than mAb 2021 [1] | Peak (nM); thrombin generation, FVIII-neutralized plasma + 10 nM TFPI alpha; 100.0 nM mAb [2] | ttPeak (min); thrombin generation, FVIII-neutralized plasma + 10 nM TFPI alpha; 100.0 nM mAb [2] | Peak (nM); thrombin generation, FVIII-neutralized plasma, no TFPI added; 10.0 nM mAb [3] | ttPeak (min); thrombin generation, FVIII-neutralized plasma, no TFPI added; 10.0 nM mAb [3] | Kd [4] | koff [4] | kon [4] | Kd [5] | koff [5] | kon [5] | EC50; thrombin generation, FVIII-neutralised plasma + 10 nM full-length TFPI alpha; single experiment [6] | EC50 of the thrombin generation response in FVIII-neutralised plasma + 10 nM full-length TFPI alpha [6] | EC50 (half-maximal response); thrombin generation, FVIII-neutralised plasma, no TFPI added; four-parameter fit, average of 2 experiments [7] | EC50 of the thrombin generation response in FVIII-neutralised plasma without added TFPI [7]
1 | B1 | 10 fold |  |  |  |  |  |  |  |  |  |  |  |  |  | 
2 | B2 | ~1000 fold |  |  |  |  |  |  |  |  |  |  |  |  |  | 
3 | B3 |  | 177 nM | 7 min | 182 nM | 6.9 min | 0.02 nM | 8e-05 s⁻¹ | 5e+06 M⁻¹ s⁻¹ | 0.3 nM | 0.0001 s⁻¹ | 400000 M⁻¹ s⁻¹ | 9.5 nM | 9.5 nM | 1.1 nM | 1.1 nM
